Test results from the supplement of paper PMC9170038.

system: MS2 coat protein; assay: apparent KD of MS2 coat protein; higher = weaker reporter binding; conditions: Eterna round: R107; input ligand: theophylline 2 mM
Procedure: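 RNA-MaP round R107: designed RNA switches with theophylline, tryptophan, arginine or FMN aptamers are transcribed on-chip within common flanks. They are titrated with SNAP-549-labelled MS2 coat protein in RNA-MaP buffer (100 mM Tris pH 7.5, 80 mM KCl, 4 mM MgCl2), without ligand or with the indicated ligand. Median apparent KD per design.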

Sequence | apparent KD of MS2 coat protein [nM]
UAUCCACAUGAGGAUCACCCAUGUUAGGAAGGAGCGGUGAAUGCACCAGGUAGGUCGCCUAGCUGAGGACUGUCGGUGGAUUCGU [Exclusion - Arginine A (Freestyle 19)] | 53
AGCUCGCAUCCUCUAGCGUCAAAGACGCCUCGAGGACCGGUACGGCCGCCACUCGAGAUGAGGAUCACCCAUCUCAAAGCGAGCA [TrypAX 14 #SwitchBubble #AlternativeMS2 #MS2Late #CuTurnoff] | 254
GGUUACUCUACGGCCGCCACUGUAAAGUAAAUAUUAAUGUACAUGACAUGAGGAUCACCCAUGUACAGGACCGGGUAGUGUAACC [Tryptophan B 14] | 46.5
CGGUUGCCACAUGAGGAUCACCCAUGUGAAGGAGCGGCGAAUAAGCCAGGUAGGUCGCGCAUGAAUAAAUCAUGUUGGUGCCGAA [XArg-A 17 V2] | 68.5
GGGUACAUCGCGGCCGCCACUCAUGUAAAUUCAUGAGGAUCACCCAUGACGAUGGAGACAUCGGAGAGGACCGGGUGAUGUACCG | 20.8
CACAGUGCGAAAUUGAAUUCGCACGAUCCUCGAGGACCGGUACGGCCGCCACUCGCGCGGGUCGUACAUGAGGAUCACCCAUGUC [Zatiin] | 477
GUAUCUAUGUGAAAUAGAUAUGUAACUGAAGGAGCGUCAUUAAGGACAGGUAGGUCGCGGAGCACAUGAGGAUCACCCAUGUCGG [#09 Same State - Arginine A] | 35.5
GGCCCUGCGAGCGCUCGCAGGGCCGCGGAUACCAGCGAGGUCCAUCGCCCUUGGCAGCCGAACAUGAGGAUCACCCAUGUCGGUA [#1 Same State - Theophylline A Attempt #13 (HarryS)] | 18.3
AAAAUAAACUCGGCCGCCACUCAACGGACCCUUUGGACAUGAGGAUCACCCAUGUAUUUUGGAAAGAGGACCGGGAGAAAUAAAA [Exclusion - Trytophan B] | 11.7

same assay, conditions: Eterna round: R107; input ligand: tryptophan 2.4 mM

Sequence | apparent KD of MS2 coat protein [nM]
GGGAUAUCCCGAAGGAGCGCGAGAUGCUGUGCUGCAUUCCUCACAUGAGGAUCACCCAUGUCGCAGGUAGGUCGCGGGAUAUCCC [#16 Exclusion - Arginine B] | 485
AAUAAUAACAUGGGUGAAGUCGUACCAUAACGAGGACCGGUACGGCCGCCACUCGAACAUGAGGAUCACCCAUGUAGGUACGACA [M'-T'-T-MS2-T'' - Design 9] | 43.7
UGGGUACAUGAGGAUCACCCAUGUACUGAAGGAGCGAGAAUUAUCUCAGGUAGGUCGCAGACAUGAGGAUCACCCAUGUAGUAGG [Exclusion Arginine A GF 12] | 24.2
UGUAUGUGAUCUGAUACCAGAGUGAAUAAACCUGAGGAUCACCCUGGUAGGCGAAAGCCACUCCCUUGGCAGCAGAUCGCAUACU | 141
UGUUUGGUGCGCGAGUGUUGGAUAAUUGAUACCAGUGAAGAAGAGCGCCCUUGGCAGCGAAUCCUAACAUGAGGAUCACCCAUGU [5.U] | 39
CGAUCUUUCGAAAGAAGGAUCGAGUCUGAUACCAGAGACGAAAGUCUCCCUUGGCAGCAGUGCCAACAUGAGGAUCACCCAUGUU [Theophylline A 10] | 15.8
ACAUGAGGAUCACCCAUGUACGAGUCGGAAGGAGCGGCAAUUAAGCCAGGUAGGUCGCCGGCAGAGAGUGUCAUUGUAAGUAUGA [Same State - Arginine A / A] | 14
UGCGAUUGCUCAGAUACCAGACAUGAGGAUCACCCAUGUACCAAGGUAAAGAAAUAACGUGUCCCUUGGCAGCUGAGCAAUCGCU [MAT - Exclusion Theophlline B - Mod of Eli - D9] | 11.3
CCCUGGGUGGGAAGGAGCGCAUAGUGAACAUGAGGAUCACCCAUGUGUAGACGUGAGUCACUGCAGGUAGGUCGCCCACCCAGGG [SS-ArgB23] | 29.5
GGUCGCCAACAUGGGUGGGCGACCCUGGAAGGAGCGAGCGAGAGCUCAGGUAGGUCGCCAGAACAUGAGGAUCACCCAUGUAAUA [(A)''-(M)'-(A)'(Arg1)-(Arg2)-(M1)-(M2)_Design13] | 59.6
GGAUAGGACAGAAGGAGCGACAUGCGACGAAAGUCGAAAAGAUCACAUGAGGAUCACCCAUGUCAGGUAGGUCGCUGUCCUAUCG [ArgXB 10 #Zipper #MS2Left #StaticStem #Blueprint] | 89.9
ACGAUAGGACUUGAGGAACACCCAAGUGAUACCAGCCUGGAAACAGGCCCUUGGCAGCACUAAUACUCCAAUAACCUAUCGAAUA [TheoAX 15 #MicroSwitchBubble #AlternativeMS2] | 155
GCACCAGGUACGGAUACCAGCUGCCCGAGAUACAUGAGGAUCACCCAUGUGACCUGAUUUAGCCCUUGGCAGCUGUACCUGGUGC [SSThB NP+V+V2 #1] | 285
AUUUAUUGUCGUGAUACCAGACAUACAUGAGGAUCACCCAUGUUAAGUAACUUUUUUCAGGUCCCUUGGCAGCACUUUUUAAUUA [JR_Nu_SSTheophyB_Sub019] | 18.1
ACACAUGAGGAUCACCCAUGUGCGCUGGAAGGAGCGCAGAAUCAUGCAGGUAGGUCGCCAGUGCCUUUUGAUAAAGGGAAAAGAA [Cezaquce] | 60.6
AAUUUUAACGGAAGGAGCGUCACGUAAUUCAUACAUGAGGAUCACCCAUGUUAGUUGUAGAGACAGGUAGGUCGCCGUUAUUUGA [JR_AAArginiB_Sub025] | 17

Sequence | apparent KD of MS2 coat protein [nM]
CGCACAGAGAAUGAUACCAGCGAGGAAGCGACAUGAGGAUCACCCAUGUGCGAAUGAUCCCGCCCUUGGCAGCGUAAGUGAUCCC [ss-theoB-?] | 62.6
AAACAUGAGGAUCACCCAUGUCCUCGUGAUCGAGGACCGGUACGGCCGCCACUCGGUCCUCGCGAGGUGGAGUCAAAGACUCCAA [Omei Trp A SS A v7] | 69.5
GGGUGGUAGGCGGCCGCCACUGAUUUUUAUAUAUAUAUGACAUGAGGAUCACCCAUGUAGAUAUGCAGGACCGGGCCUGUUGUUU [aaaN] | 28.3
GACAUGAGGAUCACCCAUGUAUUGGGUGAUACCAGCCUGAAUCAUGGCCCUUGGCAGCACCGCGCUAACUUUAUGUUUGCGAACC [Mavegeceri] | 56.5
AAGGUGAUCCGUGAUACCAGCUCAACAUGAGGAUCACCCAUGUAAGCCUGGAAACAGGCGAGCCCUUGGCAGCACGGUAAUAAUA [(M)'-(Theo1)-(Ms2)-(Theo2)-(M'')] | 12.6
GGUUACUCUACGGCCGCCACUGGGCAUGUAAAUAACAUGAGGAUCACCCAUGUGGAUUAAUAUUACAGGACCGGGUAGUGUAACC [Tryptophan B 23] | 25.1
GCGAUGGAGCGAAGGAGCGGCUAUCACCGACAAAACAUGAGGAUCACCCAUGUUGGCAGUGGCCAGGUAGGUCGCGCUCCAUCGC [EAB NP+V+V2 #8] | 8.57
UAUCCACAUGAGGAUCACCCAUGUUAGGAAGGAGCGGUGAAUGCACCAGGUAGGUCGCCUAGCUGAGGACUGUCGGUGGAUUCGU [Exclusion - Arginine A (Freestyle 19)] | 40.3
AGCUCGCAUCCUCUAGCGUCAAAGACGCCUCGAGGACCGGUACGGCCGCCACUCGAGAUGAGGAUCACCCAUCUCAAAGCGAGCA [TrypAX 14 #SwitchBubble #AlternativeMS2 #MS2Late #CuTurnoff] | 156
CGGUUGCCACAUGAGGAUCACCCAUGUGAAGGAGCGGCGAAUAAGCCAGGUAGGUCGCGCAUGAAUAAAUCAUGUUGGUGCCGAA [XArg-A 17 V2] | 33.4
GGGUACAUCGCGGCCGCCACUCAUGUAAAUUCAUGAGGAUCACCCAUGACGAUGGAGACAUCGGAGAGGACCGGGUGAUGUACCG | 16.8
GUAUCUAUGUGAAAUAGAUAUGUAACUGAAGGAGCGUCAUUAAGGACAGGUAGGUCGCGGAGCACAUGAGGAUCACCCAUGUCGG [#09 Same State - Arginine A] | 34.3
GGCCCUGCGAGCGCUCGCAGGGCCGCGGAUACCAGCGAGGUCCAUCGCCCUUGGCAGCCGAACAUGAGGAUCACCCAUGUCGGUA [#1 Same State - Theophylline A Attempt #13 (HarryS)] | 9.44
ACAUGAGGAUCACCCAUGUUCCUCGCCGAUACCAGUGAAGAAUUACGCCCUUGGCAGCGGAAAGAGUGUUUUGGAGAUGAGGUAC [6.aA] | 100
CCACACAUGAGGAUCACCCAUGUAAUUGAUACCAGAUUUAAAUGAGUCCCUUGGCAGCAGUGAGCUAGAGUUGUCGUAUAUAUGG [Theo A SS t2] | 16.1
AAAAUAAACUCGGCCGCCACUCAACGGACCCUUUGGACAUGAGGAUCACCCAUGUAUUUUGGAAAGAGGACCGGGAGAAAUAAAA [Exclusion - Trytophan B] | 12.2
